± gives the uncertainty stated by the source.
Assay: protein stability index of a GFP-peptide fusion (yeast GPS) (PSI 1-4); higher = more stable; sorted into four equal gates, so the index is relative within each strain
Method in brief: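 Mid-log yeast cultures in leucine-free medium, carrying a pooled plasmid library, were sorted into four equal gates by their GFP/Cherry fluorescence ratio. Each plasmid expressed Cherry along with GFP fused upstream of a tiled 17-residue yeast protein peptide. Plasmids recovered from each gate were PCR-amplified and Illumina-sequenced, with reads assigned to strains by barcodes. The protein stability index was obtained by summing each gate's read frequency weighted by its gate number.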

TMLITGQRPDRATTYEK [SIN4]
protein stability index (doa10∆): 3.06 ± 0.11
protein stability index (pdr5∆): 3.09 ± 0.15
protein stability index (san1∆): 3.25 ± 0.07
protein stability index (ubr1∆): 3.22 ± 0.05

KNYSRPSTAIHTSPHQP [SIR4]
protein stability index (doa10∆): 2.86 ± 0.045
protein stability index (pdr5∆): 2.72 ± 0.044
protein stability index (san1∆): 2.65 ± 0.053
protein stability index (ubr1∆): 2.72 ± 0.044

DNRTKSTTIKNIDILNR [SMC4]
protein stability index (doa10∆): 1.85 ± 0.062
protein stability index (pdr5∆): 2.07 ± 0.062
protein stability index (san1∆): 1.77 ± 0.15
protein stability index (ubr1∆): 1.67 ± 0.08

ANNASQITPTVPHSHPS [SNF12]
protein stability index (doa10∆): 2.77 ± 0.053
protein stability index (pdr5∆): 3 ± 0.064
protein stability index (san1∆): 2.82 ± 0.052
protein stability index (ubr1∆): 2.9 ± 0.052

DSESESGDKEATAPLIQ [RPN8]
protein stability index (doa10∆): 3.44 ± 0.19
protein stability index (pdr5∆): 3.44 ± 0.12
protein stability index (san1∆): 3.28 ± 0.093
protein stability index (ubr1∆): 3.49 ± 0.28

NIETGENHNGQSISNEN [SWI3]
protein stability index (doa10∆): 2.59 ± 0.26
protein stability index (pdr5∆): 3.14 ± 0.12
protein stability index (san1∆): 3.06 ± 0.12
protein stability index (ubr1∆): 3.13 ± 0.12

KLIPKLYRYRFDPFQAV [ECM29]
protein stability index (doa10∆): 2.86 ± 0.14
protein stability index (pdr5∆): 2.77 ± 0.14
protein stability index (san1∆): 2.71 ± 0.11
protein stability index (ubr1∆): 2.8 ± 0.063

GVRPFGVSLLIAGHDEF [PRE8]
protein stability index (doa10∆): 2.46 ± 0.1
protein stability index (pdr5∆): 1.95 ± 0.096
protein stability index (san1∆): 1.94 ± 0.2
protein stability index (ubr1∆): 1.93 ± 0.075

RLGSFTRAKAKVEEMNN [RPL36A]
protein stability index (pdr5∆): 2.61 ± 0.2
protein stability index (san1∆): 2.85 ± 0.19
protein stability index (ubr1∆): 2.87 ± 0.28

TNVIAFAFWNLLVKFIK [YLR018C/POM34]
protein stability index (doa10∆): 1.42 ± 0.092
protein stability index (pdr5∆): 1.39 ± 0.084
protein stability index (san1∆): 1.29 ± 0.16
protein stability index (ubr1∆): 1.48 ± 0.042

LQNIVMDCTKEEEATMT [YIL149C/MLP2]
protein stability index (doa10∆): 3.4 ± 0.12
protein stability index (pdr5∆): 3.3 ± 0.1
protein stability index (san1∆): 3.31 ± 0.086
protein stability index (ubr1∆): 2.98 ± 0.089

KIVVLSRTGPVFDLCWN [RRP43]
protein stability index (doa10∆): 2.07 ± 0.057
protein stability index (pdr5∆): 2.2 ± 0.048
protein stability index (san1∆): 2.91 ± 0.066
protein stability index (ubr1∆): 2.39 ± 0.035

MAGLKDVVTREYTINLH [RPL31A]
protein stability index (doa10∆): 3.02 ± 0.15
protein stability index (pdr5∆): 3.06 ± 0.14
protein stability index (san1∆): 3.01 ± 0.08
protein stability index (ubr1∆): 3.29 ± 0.16

VVVDTVECAQHCIDYLR [SMC4]
protein stability index (doa10∆): 3.06 ± 0.11
protein stability index (pdr5∆): 2.79 ± 0.22
protein stability index (san1∆): 3.26 ± 0.074
protein stability index (ubr1∆): 3.01 ± 0.1

SITLQGDVYDPEGTLSG [SMC2]
protein stability index (doa10∆): 2.76 ± 0.16
protein stability index (pdr5∆): 2.6 ± 0.13
protein stability index (ubr1∆): 2.28 ± 0.12

CQYMVACVPLLPPPEDV [RPN1]
protein stability index (doa10∆): 2.03 ± 0.046
protein stability index (pdr5∆): 2.57 ± 0.073
protein stability index (san1∆): 2.65 ± 0.048
protein stability index (ubr1∆): 2.76 ± 0.053

DAEVAQFLEQGLSIHPT [SRP68]
protein stability index (doa10∆): 2.79 ± 0.057
protein stability index (pdr5∆): 3 ± 0.063
protein stability index (san1∆): 2.76 ± 0.073
protein stability index (ubr1∆): 3.1 ± 0.042

IFEAISLSDELNLDEIV [YJL039C/NUP192]
protein stability index (doa10∆): 2.76 ± 0.067
protein stability index (pdr5∆): 2.73 ± 0.064
protein stability index (san1∆): 2.72 ± 0.042
protein stability index (ubr1∆): 2.87 ± 0.054

IKQDIPIVIIFRALGII [RPB2]
protein stability index (doa10∆): 1.61 ± 0.05
protein stability index (pdr5∆): 1.33 ± 0.037
protein stability index (san1∆): 1.48 ± 0.077
protein stability index (ubr1∆): 1.49 ± 0.039

QVVTDYNILGNLGIPKI [SSN2]
protein stability index (doa10∆): 2.51 ± 0.069
protein stability index (pdr5∆): 2.96 ± 0.072
protein stability index (san1∆): 2.37 ± 0.1
protein stability index (ubr1∆): 2.27 ± 0.06

DKIAVAVAGLTADAEIL [PRE9]
protein stability index (doa10∆): 1.5 ± 0.098
protein stability index (pdr5∆): 1.65 ± 0.077
protein stability index (san1∆): 1.25 ± 0.21
protein stability index (ubr1∆): 2.1 ± 0.075

NTCYLNATLQALYRVND [UBP6]
protein stability index (doa10∆): 2.25 ± 0.07
protein stability index (pdr5∆): 2.59 ± 0.069
protein stability index (san1∆): 2.69 ± 0.063
protein stability index (ubr1∆): 2.5 ± 0.055

AKMNAKTDFAKIINKPN [RPC82]
protein stability index (doa10∆): 1.8 ± 0.069
protein stability index (pdr5∆): 1.79 ± 0.092
protein stability index (san1∆): 1.58 ± 0.17
protein stability index (ubr1∆): 1.62 ± 0.069

HLSTYLKVYKVGDIVDI [RPL21A]
protein stability index (doa10∆): 1.22 ± 0.075
protein stability index (pdr5∆): 1.49 ± 0.061
protein stability index (san1∆): 1.24 ± 0.16
protein stability index (ubr1∆): 1.16 ± 0.065

CKQVHDKLTSIQDTLRT [MED7]
protein stability index (doa10∆): 2.68 ± 0.074
protein stability index (pdr5∆): 2.85 ± 0.048
protein stability index (san1∆): 2.67 ± 0.044
protein stability index (ubr1∆): 2.81 ± 0.053

SYAGISTDKLVQCHGSF [SIR2]
protein stability index (doa10∆): 2.57 ± 0.12
protein stability index (pdr5∆): 2.76 ± 0.11
protein stability index (san1∆): 2.78 ± 0.13
protein stability index (ubr1∆): 2.98 ± 0.092

PAINYTKLKNAVQNESV [QCR2]
protein stability index (doa10∆): 1.9 ± 0.064
protein stability index (pdr5∆): 1.79 ± 0.059
protein stability index (san1∆): 2.2 ± 0.092
protein stability index (ubr1∆): 1.54 ± 0.048

PQQSRYISFIKDDRFVP [RPN2]
protein stability index (doa10∆): 2.67 ± 0.055
protein stability index (pdr5∆): 2.87 ± 0.036
protein stability index (san1∆): 2.98 ± 0.044
protein stability index (ubr1∆): 3.11 ± 0.035

EEGRAIPGEYVTYALSG [RPS21A]
protein stability index (san1∆): 2.81 ± 0.19
protein stability index (ubr1∆): 2.96 ± 0.16

NNGLPECQVIAAEGLCK [YCG1]
protein stability index (doa10∆): 2.53 ± 0.12
protein stability index (pdr5∆): 3.47 ± 0.16
protein stability index (san1∆): 1.65 ± 0.15
protein stability index (ubr1∆): 2.72 ± 0.048

VLIFFQMTQIMDIMEDF [SNF2]
protein stability index (doa10∆): 1.67 ± 0.083
protein stability index (pdr5∆): 1.52 ± 0.085
protein stability index (san1∆): 2.18 ± 0.13
protein stability index (ubr1∆): 2.42 ± 0.091

NISFYKLHVNWNLNATK [SIN4]
protein stability index (doa10∆): 2.43 ± 0.072
protein stability index (pdr5∆): 2.23 ± 0.077
protein stability index (san1∆): 2.18 ± 0.16
protein stability index (ubr1∆): 1.48 ± 0.081

KESDESKSAFSFGSKPT [YJL041W/NSP1]
protein stability index (doa10∆): 3.1 ± 0.048
protein stability index (pdr5∆): 3.22 ± 0.061
protein stability index (san1∆): 3.198 ± 0.029
protein stability index (ubr1∆): 3.108 ± 0.031

KQIIVTRKAMLDPLEVH [PRP8]
protein stability index (doa10∆): 3.11 ± 0.094
protein stability index (pdr5∆): 3.13 ± 0.071
protein stability index (san1∆): 3.16 ± 0.062
protein stability index (ubr1∆): 3.05 ± 0.055

HHYEECAERVKIQQQQP [QCR6]
protein stability index (doa10∆): 3.25 ± 0.12
protein stability index (pdr5∆): 3.04 ± 0.18
protein stability index (san1∆): 2.85 ± 0.11
protein stability index (ubr1∆): 3.13 ± 0.15

LIAHQRSAWNNNNDNDA [GRR1]
protein stability index (doa10∆): 2.25 ± 0.049
protein stability index (pdr5∆): 2.65 ± 0.039
protein stability index (san1∆): 2.62 ± 0.05
protein stability index (ubr1∆): 2.65 ± 0.039

DKKVLVKVQPEGKYIVD [RPT6]
protein stability index (doa10∆): 3.23 ± 0.081
protein stability index (pdr5∆): 3.28 ± 0.088
protein stability index (san1∆): 3.23 ± 0.036
protein stability index (ubr1∆): 2.96 ± 0.062

SGKITDFIKFDAGKLVY [RPS4A]
protein stability index (doa10∆): 3.17 ± 0.066
protein stability index (pdr5∆): 2.92 ± 0.061
protein stability index (san1∆): 2.8 ± 0.06
protein stability index (ubr1∆): 3 ± 0.064

QAVNNLIKTLSTLHMLG [RPP1]
protein stability index (doa10∆): 2.5 ± 0.053
protein stability index (pdr5∆): 2.45 ± 0.058
protein stability index (san1∆): 2.38 ± 0.071
protein stability index (ubr1∆): 2.47 ± 0.042

LPLDSQDDEYVKDWLYD [PRP8]
protein stability index (doa10∆): 3.44 ± 0.15
protein stability index (pdr5∆): 3.39 ± 0.088
protein stability index (san1∆): 3.35 ± 0.099
protein stability index (ubr1∆): 3.1 ± 0.053

IPDIGDLPDTEGLELLG [PRP8]
protein stability index (doa10∆): 3.08 ± 0.14
protein stability index (pdr5∆): 3.15 ± 0.15
protein stability index (san1∆): 3.35 ± 0.063
protein stability index (ubr1∆): 3.29 ± 0.046

AHMGVLLVLLQDVIKVL [SWP82]
protein stability index (doa10∆): 1.51 ± 0.068
protein stability index (pdr5∆): 1.58 ± 0.084
protein stability index (san1∆): 1.45 ± 0.1
protein stability index (ubr1∆): 1.51 ± 0.057

ISLLALPHSPLWELALA [YML031W/NDC1]
protein stability index (doa10∆): 1.35 ± 0.086
protein stability index (pdr5∆): 1.49 ± 0.061
protein stability index (san1∆): 1.34 ± 0.11
protein stability index (ubr1∆): 1.7 ± 0.042

DVTALLEQGFKVVSAKE [YCS4]
protein stability index (doa10∆): 2.48 ± 0.12
protein stability index (pdr5∆): 1.68 ± 0.077
protein stability index (san1∆): 2.9 ± 0.098
protein stability index (ubr1∆): 3.37 ± 0.16

NLVVSGPPQSLYGLNLT [FAS1]
protein stability index (doa10∆): 2.69 ± 0.071
protein stability index (pdr5∆): 2.35 ± 0.059
protein stability index (san1∆): 2.51 ± 0.075
protein stability index (ubr1∆): 2.45 ± 0.043

LLAEEEELILPNTKDAM [PRP8]
protein stability index (doa10∆): 3.16 ± 0.089
protein stability index (pdr5∆): 3.44 ± 0.072
protein stability index (san1∆): 3.36 ± 0.063
protein stability index (ubr1∆): 3.04 ± 0.079

LIEYMENDAKKSKGDVD [NUT1]
protein stability index (doa10∆): 3.05 ± 0.11
protein stability index (pdr5∆): 3.1 ± 0.079
protein stability index (san1∆): 3.1 ± 0.08
protein stability index (ubr1∆): 3.03 ± 0.058

DKKNSSDPNNQSLNEMV [YJL039C/NUP192]
protein stability index (doa10∆): 3.07 ± 0.1
protein stability index (pdr5∆): 3.24 ± 0.11
protein stability index (san1∆): 3.16 ± 0.087
protein stability index (ubr1∆): 3.35 ± 0.071

LFEVNPSQTLFSISYKP [SRP21]
protein stability index (doa10∆): 2.57 ± 0.071
protein stability index (pdr5∆): 2.84 ± 0.077
protein stability index (san1∆): 2.28 ± 0.091
protein stability index (ubr1∆): 2.64 ± 0.045

FAADGDALVKRFKNSVK [PRE7]
protein stability index (doa10∆): 2.64 ± 0.28
